From the supplement of paper PMC9233669
Fewer inactive variants are shown than the library holds.

What was measured:
[1] = tested on: biotinyl-Phe-oxazolone; assay: self-aminoacylation, catalytic enhancement (BFO) (fold over background); higher = more active; k-Seq, kA / k0A0; sequences stand for … in GGGAAUGGAUCCACAUCUACGAAUUC…UUCACUGCAGACUUGACGAAGCUG
Method in brief: (§1)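 Mutagenized RNA pools (0.43 μM; 21-nt variable region) were treated with 2–1250 μM of each biotinyl-aminoacyl-oxazolone. Conditions were 50 μL HEPES/NaCl/KCl/MgCl2/CaCl2 buffer, 5% acetonitrile, pH 6.9–7.0, room temperature, 90 minutes. Catalytic enhancement, the median kA relative to the uncatalyzed rate, was derived from streptavidin capture, qPCR and Illumina sequencing.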

[2] = tested on: biotinyl-Ile-oxazolone; assay: self-aminoacylation, catalytic enhancement (BIO) (fold over background); higher = more active; k-Seq, kA / k0A0; sequences stand for … in GGGAAUGGAUCCACAUCUACGAAUUC…UUCACUGCAGACUUGACGAAGCUG
Method in brief: as §1

[3] = tested on: biotinyl-Met-oxazolone; assay: self-aminoacylation, catalytic enhancement (BMO) (fold over background); higher = more active; k-Seq, kA / k0A0; sequences stand for … in GGGAAUGGAUCCACAUCUACGAAUUC…UUCACUGCAGACUUGACGAAGCUG
Method in brief: as §1

[4] = tested on: biotinyl-Val-oxazolone; assay: self-aminoacylation, catalytic enhancement (BVO) (fold over background); higher = more active; k-Seq, kA / k0A0; sequences stand for … in GGGAAUGGAUCCACAUCUACGAAUUC…UUCACUGCAGACUUGACGAAGCUG
Method in brief: as §1

[5] = tested on: biotinyl-Leu-oxazolone; assay: self-aminoacylation, catalytic enhancement (BLO) (fold over background); higher = more active; k-Seq, kA / k0A0; sequences stand for … in GGGAAUGGAUCCACAUCUACGAAUUC…UUCACUGCAGACUUGACGAAGCUG
Method in brief: as §1

[6] = tested on: biotinyl-Trp-oxazolone; assay: self-aminoacylation, catalytic enhancement (BWO) (fold over background); higher = more active; k-Seq, kA / k0A0; sequences stand for … in GGGAAUGGAUCCACAUCUACGAAUUC…UUCACUGCAGACUUGACGAAGCUG
Method in brief: as §1

Sequence | self-aminoacylation [1] | self-aminoacylation [2] | self-aminoacylation [3] | self-aminoacylation [4] | self-aminoacylation [5] | self-aminoacylation [6]
CAACUUCGAACAAUCGGUCUG [Fam1A.1 aminoacylation ribozyme variant] | 2.22 | 1.21 | 1.1 | 1.15 | 0.999 | 2.15
AAGUUCGCUAAUAGCCGCAAG [Fam3.1 aminoacylation ribozyme variant] | 1.97 | 1.35 | 1.82 | 1.12 | 1.38 | 1.75
CUACUUCAAACAAUCUGUCUU [Fam1A.1 aminoacylation ribozyme variant] | 0.839 | 0.872 | 0.559 | 0.74 | 0.576 | 0.495
AUUCAACUAGUUCAUCGGGUG [Fam2.2 aminoacylation ribozyme variant] | 16.8 | 1.95 | 2.82 | 1.95 | 2.77 | 2.29
AUUCAACUAGGUCUUCGGGUG [Fam2.2 aminoacylation ribozyme variant] | 29.8 | 2.93 | 4.21 | 3.01 | 4.84 | 4.34
AUUACCGUGGUCAUGGAGUGA [Fam2.1 aminoacylation ribozyme variant] | 12.2 | 2.27 | 3.21 | 2.37 | 3.43 | 3.69
CUACUCCACACAAUCGGUCUG [Fam1A.1 aminoacylation ribozyme variant] | 0.891 | 0.696 | 0.722 | 0.731 | 0.702 | 0.9
AAGUUUGCUUAUAGUCGCAAU [Fam3.1 aminoacylation ribozyme variant] | 1.74 | 1.1 | 1.41 | 1.22 | 1.27 | 1.03
CUACUUCAAACAAUCGGAGUG [Fam1A.1 aminoacylation ribozyme variant] | 6.37 | 3.06 | 3.25 | 2.52 | 4.96 | 3.77
CCACACAUCAGGCAAUCGGUC [Fam1B.1 aminoacylation ribozyme variant] | 1.15 | 1.25 | 1.03 | 1.3 | 1.12 | 0.806
CUACUCCAACCAAUCGGUCUG [Fam1A.1 aminoacylation ribozyme variant] | 0.726 | 0.623 | 0.74 | 0.706 | 0.855 | 0.879
CCACACUUCAAGCAAUUGGCC [Fam1B.1 aminoacylation ribozyme variant] | 2.34 | 2.77 | 2.58 | 4.13 | 3.18 | 3.51
AUUACCCUGGUCAGCGAGUAA [Fam2.1 aminoacylation ribozyme variant] | 0.633 | 1.19 | 1.48 | 1.27 | 1.14 | 0.914
CUACUUCAAACGAUCCGUCUG [Fam1A.1 aminoacylation ribozyme variant] | 0.594 | 0.783 | 0.958 | 0.808 | 0.787 | 0.755
CCGCACUUCCAGCAAUCGGUC [Fam1B.1 aminoacylation ribozyme variant] | 0.932 | 1.35 | 0.995 | 2.03 | 1.04 | 0.883
CCACAUUUCAAGCAAUCGGCC [Fam1B.1 aminoacylation ribozyme variant] | 3.98 | 3.63 | 4.62 | 3.56 | 3.19 | 4.96
CUACUUCACACAAUCGAUCUG [Fam1A.1 aminoacylation ribozyme variant] | 0.726 | 0.888 | 0.686 | 0.677 | 0.784 | 0.691
GUACUUCAAACAAUCGCUCUG [Fam1A.1 aminoacylation ribozyme variant] | 3.1 | 1.77 | 1.91 | 1.71 | 1.88 | 3.76
AAGUUUGCAAAUAUUCGCAAG [Fam3.1 aminoacylation ribozyme variant] | 1.3 | 0.999 | 1.25 | 1.03 | 1.09 | 1.35
AUUCGCAUAGGUCAUCGGGUG [Fam2.2 aminoacylation ribozyme variant] | 66 | 5.95 | 9.49 | 7.08 | 12.2 | 9.43
AUUCUCCUAGGUCAUCGAGUG [Fam2.2 aminoacylation ribozyme variant] | 6.65 | 3.62 | 5.07 | 3.77 | 6.3 | 3.73
AUUCACUUAGGACAUCGGGUG [Fam2.2 aminoacylation ribozyme variant] | 14.1 | 2.33 | 3.21 | 2.33 | 3.44 | 2.78
CCACACUUCCAGCAAUCGCUC [Fam1B.1 aminoacylation ribozyme variant] | 1.22 | 1.69 | 1.54 | 1.83 | 1.35 | 1.59
AAGUUUGUUAAUAGACGCAAG [Fam3.1 aminoacylation ribozyme variant] | 0.803 | 0.583 | 0.587 | 0.536 | 0.399 | 0.609
CUACUUCGACCAAUCGGUCUG [Fam1A.1 aminoacylation ribozyme variant] | 0.674 | 0.854 | 0.856 | 0.908 | 0.979 | 0.379
ACUACCCUGGUCAUCUAGUGA [Fam2.1 aminoacylation ribozyme variant] | 63.1 | 3.86 | 7.5 | 3.97 | 7.72 | 7.62

Sequence | self-aminoacylation [1] | self-aminoacylation [2] | self-aminoacylation [3] | self-aminoacylation [4] | self-aminoacylation [5] | self-aminoacylation [6]
CGACUUCAAACAAUCUGUCUG [Fam1A.1 aminoacylation ribozyme variant] | 3.02 | 0.926 | 0.815 | 0.86 | 0.664 | 1.84
AAGUUUUAUAAUAGUCGCAAG [Fam3.1 aminoacylation ribozyme variant] | 3.02 | 1.72 | 1.77 | 1.64 | 1.61 | 1.99
AUUCACCUAGGUCUUCGGCUG [Fam2.2 aminoacylation ribozyme variant] | 6.94 | 2.12 | 1.8 | 1.87 | 2.59 | 1.46
AAGUUAUCUAAUAGUCGCAAG [Fam3.1 aminoacylation ribozyme variant] | 2.66 | 1.51 | 1.32 | 1.18 | 1.53 | 1.36
CCACCCUUCAAGCAAUCGGUA [Fam1B.1 aminoacylation ribozyme variant] | 0.981 | 1.4 | 1.38 | 1.6 | 1.59 | 2.06
CUACUUAAAACAAACGGUCUG [Fam1A.1 aminoacylation ribozyme variant] | 0.836 | 0.911 | 0.871 | 0.895 | 0.933 | 0.67
CCACACUUCAGGCUAUCGGUC [Fam1B.1 aminoacylation ribozyme variant] | 0.514 | 1.33 | 1.1 | 1.33 | 1.23 | 1.39
AUUCACCUUGGUCAACGGGUG [Fam2.2 aminoacylation ribozyme variant] | 20.3 | 2.22 | 3.19 | 2.2 | 4.24 | 3.03
AAGUUUGCUAAUAGUCGAAAG [Fam3.1 aminoacylation ribozyme variant] | 17.9 | 1.38 | 1.47 | 1.22 | 1.14 | 5.4
AUUCCCCUACGUCAUCGGGUG [Fam2.2 aminoacylation ribozyme variant] | 127 | 10.9 | 16 | 11 | 20.9 | 16
AUUCCCCUAGUCAUCGAGUGA [Fam2.1 aminoacylation ribozyme variant] | 66.1 | 6.5 | 11.5 | 7.18 | 11.6 | 15.3
AUUACACUGGUCAUCUAGUGA [Fam2.1 aminoacylation ribozyme variant] | 35 | 3.07 | 5.64 | 2.65 | 6.24 | 6.76
CCACACUUCAAGCAGCCGGUC [Fam1B.1 aminoacylation ribozyme variant] | 0.916 | 1.97 | 1.32 | 1.56 | 1.82 | 1.68
CUACUUCAAACAAUCGGACAG [Fam1A.1 aminoacylation ribozyme variant] | 1.19 | 0.782 | 0.718 | 0.709 | 0.672 | 0.656
ACACACUUCAAGCAAUCGGGC [Fam1B.1 aminoacylation ribozyme variant] | 2.02 | 2.48 | 2.81 | 2.73 | 2.34 | 3.29
AAUCACCAAGGUCAUCGGGUG [Fam2.2 aminoacylation ribozyme variant] | 54.3 | 4.92 | 6.79 | 5.67 | 10.7 | 8.66
ACACACUUCAAGCAAUCGUUC [Fam1B.1 aminoacylation ribozyme variant] | 1.43 | 1.02 | 0.825 | 1.23 | 0.787 | 1.21
CGAAACUUCAAGCAAUCGGUC [Fam1B.1 aminoacylation ribozyme variant] | 7.94 | 1.17 | 0.901 | 1.18 | 0.993 | 5.43
AAGUUUGCUAAUAGUCGCUAA [Fam3.1 aminoacylation ribozyme variant] | 1.96 | 1.33 | 1.13 | 1.21 | 1.2 | 1.53
AUUCGCCUAGGUCAUCAGGUG [Fam2.2 aminoacylation ribozyme variant] | 7.29 | 1.48 | 1.97 | 1.53 | 2.02 | 2.53
AUUCCCCUGGUCAUUGAGUGA [Fam2.1 aminoacylation ribozyme variant] | 64.3 | 4.73 | 8.79 | 4.5 | 8.32 | 11.7
AUUCACGUAGGUCAACGGGUG [Fam2.2 aminoacylation ribozyme variant] | 21.1 | 2.77 | 3.95 | 3.15 | 4.96 | 4.47
CCACACUUCAAGAAAUCGGGC [Fam1B.1 aminoacylation ribozyme variant] | 1.14 | 2.14 | 1.82 | 1.69 | 1.64 | 2.16
AAGUUUGCUAAUAAUUGCAAG [Fam3.1 aminoacylation ribozyme variant] | 1.1 | 0.961 | 0.862 | 0.857 | 0.877 | 0.832
AAGUUUGAUAGUAGUCGCAAG [Fam3.1 aminoacylation ribozyme variant] | 0.93 | 0.973 | 1.17 | 0.979 | 0.977 | 1.21
